Biological target: T1, human serum albumin (human, UniProt P02768 25-609)
T1 construct: mature; Bought purified serum albumin; also called HSA; Human albumin
Assay: SPR, Fab captured; albumin taken as HSA;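 further: antibody held on a capture surface, albumin injected for 3 min association then dissociation followed, signals corrected using a blank reference flow cell and buffer-only injections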
Description: Each assay cycle consisted of firstly capturing the antibody sample using a 1 min injection, before an association phase consisting of a 3 min injection of albumin, after which dissociation was monitored. After each cycle, the capture surface was regenerated with two 1 min injections of 40 mM HCl followed by 30 s of 5 mM NaOH. The flow rates used were 10 μl/min for capture, 30 μl/min for both the association and dissociation phases, and 10 μl/min for regeneration. A blank flow-cell was used for reference subtraction and buffer-blank injections were included to subtract instrument noise and drift.

Binder | Kd [nM] | koff [s⁻¹] | kon [M⁻¹ s⁻¹]
CA645 gL4gH27 Fab (Fab, V domains shown, Fab: human gamma1 CH1, human kappa (Km3); Kabat numbering) VH: EVQLLESGGGLVQPGGSLRLSCAVSGIDLSNYAINWVRQAPGKGLEWIGIIWGSGTTFYATWAKGRFTISRDNSKNTVYLQMNSLRAEDTAVYYCARTVPGYSTAPYFDLWGQGTLVTVSS VL: DIQMTQSPSSVSASVGDRVTITCQSSPSVWSNFLSWYQQKPGKAPKLLIYEASKLTSGVPSRFSGSGSGTDFTLTISSLQPEDFATYYCGGGYSSISDTTFGGGTKVEIK | 1.73 | 8.4e-05 | 48300
CA645 gL4gH43 Fab (Fab, V domains shown, Fab: human gamma1 CH1, human kappa (Km3); Kabat numbering) VH: EVQLLESGGGLVQPGGSLRLSCAVSGIDLSNYAINWVRQAPGKGLEWIGIIWASGTTFYATWAKGRFTISRDNSKNTVYLQMNSLRAEDTAVYYCARTVPEYSTAPYFDLWGQGTLVTVSS VL: DIQMTQSPSSVSASVGDRVTITCQSSPSVWSNFLSWYQQKPGKAPKLLIYEASKLTSGVPSRFSGSGSGTDFTLTISSLQPEDFATYYCGGGYSSISDTTFGGGTKVEIK | 7.39 | 0.000391 | 52900
CA645 gL4gH30 Fab (Fab, V domains shown, Fab: human gamma1 CH1, human kappa (Km3); Kabat numbering) VH: EVQLLESGGGLVQPGGSLRLSCAVSGIDLSNYAINWVRQAPGKGLEWIGIIWTSGTTFYATWAKGRFTISRDNSKNTVYLQMNSLRAEDTAVYYCARTVPGYSTAPYFDLWGQGTLVTVSS VL: DIQMTQSPSSVSASVGDRVTITCQSSPSVWSNFLSWYQQKPGKAPKLLIYEASKLTSGVPSRFSGSGSGTDFTLTISSLQPEDFATYYCGGGYSSISDTTFGGGTKVEIK | 23.2 | 0.00102 | 43800
CA645 gL27gH5 Fab (Fab, V domains shown, Fab: human gamma1 CH1, human kappa (Km3); Kabat numbering) VH: EVQLLESGGGLVQPGGSLRLSCAVSGIDLSNYAINWVRQAPGKGLEWIGIIWASGTTFYATWAKGRFTISRDNSKNTVYLQMNSLRAEDTAVYYCARTVPGYSTAPYFDLWGQGTLVTVSS VL: DIQMTQSPSSVSASVGDRVTITCQSSPSVWSNYLSWYQQKPGKAPKLLIYEASKLTSGVPSRFSGSGSGTDFTLTISSLQPEDFATYYCGGGYSSISDTTFGGGTKVEIK | 9.44 | 0.000586 | 62100
CA645 gL34gH5 Fab (Fab, V domains shown, Fab: human gamma1 CH1, human kappa (Km3); Kabat numbering) VH: EVQLLESGGGLVQPGGSLRLSCAVSGIDLSNYAINWVRQAPGKGLEWIGIIWASGTTFYATWAKGRFTISRDNSKNTVYLQMNSLRAEDTAVYYCARTVPGYSTAPYFDLWGQGTLVTVSS VL: DIQMTQSPSSVSASVGDRVTITCQSSPSVWSNFLSWYQQKPGKAPKLLIYEASKLTSGVPSRFSGSGSGTDFTLTISSLQPEDFATYYCGGGYTSISDTTFGGGTKVEIK | 3.41 | 0.00019 | 55800
CA645 gL4gH38 Fab (Fab, V domains shown, Fab: human gamma1 CH1, human kappa (Km3); Kabat numbering) VH: EVQLLESGGGLVQPGGSLRLSCAVSGIDLSNYAINWVRQAPGKGLEWIGIIWASGTTYYATWAKGRFTISRDNSKNTVYLQMNSLRAEDTAVYYCARTVPGYSTAPYFDLWGQGTLVTVSS VL: DIQMTQSPSSVSASVGDRVTITCQSSPSVWSNFLSWYQQKPGKAPKLLIYEASKLTSGVPSRFSGSGSGTDFTLTISSLQPEDFATYYCGGGYSSISDTTFGGGTKVEIK | 12.2 | 0.000581 | 47500
CA645 gL4gH41 Fab (Fab, V domains shown, Fab: human gamma1 CH1, human kappa (Km3); Kabat numbering) VH: EVQLLESGGGLVQPGGSLRLSCAVSGIDLSNYAINWVRQAPGKGLEWIGIIWASGTTFYATWAKGRFTISRDNSKNTVYLQMNSLRAEDTAVYYCARTVPDYSTAPYFDLWGQGTLVTVSS VL: DIQMTQSPSSVSASVGDRVTITCQSSPSVWSNFLSWYQQKPGKAPKLLIYEASKLTSGVPSRFSGSGSGTDFTLTISSLQPEDFATYYCGGGYSSISDTTFGGGTKVEIK | 6.54 | 0.000351 | 53700
CA645 gL13gH5 Fab (Fab, V domains shown, Fab: human gamma1 CH1, human kappa (Km3); Kabat numbering) VH: EVQLLESGGGLVQPGGSLRLSCAVSGIDLSNYAINWVRQAPGKGLEWIGIIWASGTTFYATWAKGRFTISRDNSKNTVYLQMNSLRAEDTAVYYCARTVPGYSTAPYFDLWGQGTLVTVSS VL: DIQMTQSPSSVSASVGDRVTITCQSSPIVWSNFLSWYQQKPGKAPKLLIYEASKLTSGVPSRFSGSGSGTDFTLTISSLQPEDFATYYCGGGYSSISDTTFGGGTKVEIK | 1.88 | 0.000108 | 57600
CA645 gL4gH40 Fab (Fab, V domains shown, Fab: human gamma1 CH1, human kappa (Km3); Kabat numbering) VH: EVQLLESGGGLVQPGGSLRLSCAVSGIDLSNYAINWVRQAPGKGLEWIGIIWASGTTFYATWAKGRFTISRDNSKNTVYLQMNSLRAEDTAVYYCARTVPTYSTAPYFDLWGQGTLVTVSS VL: DIQMTQSPSSVSASVGDRVTITCQSSPSVWSNFLSWYQQKPGKAPKLLIYEASKLTSGVPSRFSGSGSGTDFTLTISSLQPEDFATYYCGGGYSSISDTTFGGGTKVEIK | 6.4 | 0.000356 | 55600
CA645 gL4gH39 Fab (Fab, V domains shown, Fab: human gamma1 CH1, human kappa (Km3); Kabat numbering) VH: EVQLLESGGGLVQPGGSLRLSCAVSGIDLSNYAINWVRQAPGKGLEWIGIIWASGTTFYATWAKGRFTISRDNSKNTVYLQMNSLRAEDTAVYYCARTVPIYSTAPYFDLWGQGTLVTVSS VL: DIQMTQSPSSVSASVGDRVTITCQSSPSVWSNFLSWYQQKPGKAPKLLIYEASKLTSGVPSRFSGSGSGTDFTLTISSLQPEDFATYYCGGGYSSISDTTFGGGTKVEIK | 14 | 0.00075 | 53500
CA645 gL4gH42 Fab (Fab, V domains shown, Fab: human gamma1 CH1, human kappa (Km3); Kabat numbering) VH: EVQLLESGGGLVQPGGSLRLSCAVSGIDLSNYAINWVRQAPGKGLEWIGIIWASGTTFYATWAKGRFTISRDNSKNTVYLQMNSLRAEDTAVYYCARTVPQYSTAPYFDLWGQGTLVTVSS VL: DIQMTQSPSSVSASVGDRVTITCQSSPSVWSNFLSWYQQKPGKAPKLLIYEASKLTSGVPSRFSGSGSGTDFTLTISSLQPEDFATYYCGGGYSSISDTTFGGGTKVEIK | 4.17 | 0.000222 | 53100
CA645 gL4gH29 Fab (Fab, V domains shown, Fab: human gamma1 CH1, human kappa (Km3); Kabat numbering) VH: EVQLLESGGGLVQPGGSLRLSCAVSGIDLSNYAINWVRQAPGKGLEWIGIIWSSGTTFYATWAKGRFTISRDNSKNTVYLQMNSLRAEDTAVYYCARTVPGYSTAPYFDLWGQGTLVTVSS VL: DIQMTQSPSSVSASVGDRVTITCQSSPSVWSNFLSWYQQKPGKAPKLLIYEASKLTSGVPSRFSGSGSGTDFTLTISSLQPEDFATYYCGGGYSSISDTTFGGGTKVEIK | 7.97 | 0.00038 | 47700
CA645 gL14gH5 Fab (Fab, V domains shown, Fab: human gamma1 CH1, human kappa (Km3); Kabat numbering) VH: EVQLLESGGGLVQPGGSLRLSCAVSGIDLSNYAINWVRQAPGKGLEWIGIIWASGTTFYATWAKGRFTISRDNSKNTVYLQMNSLRAEDTAVYYCARTVPGYSTAPYFDLWGQGTLVTVSS VL: DIQMTQSPSSVSASVGDRVTITCQSSPLVWSNFLSWYQQKPGKAPKLLIYEASKLTSGVPSRFSGSGSGTDFTLTISSLQPEDFATYYCGGGYSSISDTTFGGGTKVEIK | 1.51 | 8.7e-05 | 57700
CA645 gL12gH5 Fab (Fab, V domains shown, Fab: human gamma1 CH1, human kappa (Km3); Kabat numbering) VH: EVQLLESGGGLVQPGGSLRLSCAVSGIDLSNYAINWVRQAPGKGLEWIGIIWASGTTFYATWAKGRFTISRDNSKNTVYLQMNSLRAEDTAVYYCARTVPGYSTAPYFDLWGQGTLVTVSS VL: DIQMTQSPSSVSASVGDRVTITCQSSPDVWSNFLSWYQQKPGKAPKLLIYEASKLTSGVPSRFSGSGSGTDFTLTISSLQPEDFATYYCGGGYSSISDTTFGGGTKVEIK | 1.88 | 0.000104 | 55400
CA645 gL4gH28 Fab (Fab, V domains shown, Fab: human gamma1 CH1, human kappa (Km3); Kabat numbering) VH: EVQLLESGGGLVQPGGSLRLSCAVSGIDLSNYAINWVRQAPGKGLEWIGIIWVSGTTFYATWAKGRFTISRDNSKNTVYLQMNSLRAEDTAVYYCARTVPGYSTAPYFDLWGQGTLVTVSS VL: DIQMTQSPSSVSASVGDRVTITCQSSPSVWSNFLSWYQQKPGKAPKLLIYEASKLTSGVPSRFSGSGSGTDFTLTISSLQPEDFATYYCGGGYSSISDTTFGGGTKVEIK | 10.6 | 0.000515 | 48500
CA645 gL10gH5 Fab (Fab, V domains shown, Fab: human gamma1 CH1, human kappa (Km3); Kabat numbering) VH: EVQLLESGGGLVQPGGSLRLSCAVSGIDLSNYAINWVRQAPGKGLEWIGIIWASGTTFYATWAKGRFTISRDNSKNTVYLQMNSLRAEDTAVYYCARTVPGYSTAPYFDLWGQGTLVTVSS VL: DIQMTQSPSSVSASVGDRVTITCQSSPAVWSNFLSWYQQKPGKAPKLLIYEASKLTSGVPSRFSGSGSGTDFTLTISSLQPEDFATYYCGGGYSSISDTTFGGGTKVEIK | 1.03 | 0.000172 | 138000
CA645 gL4gH45 Fab (Fab, V domains shown, Fab: human gamma1 CH1, human kappa (Km3); Kabat numbering) VH: EVQLLESGGGLVQPGGSLRLSCAVSGIDLSNYAINWVRQAPGKGLEWIGIIWASGTTFYATWAKGRFTISRDNSKNTVYLQMNSLRAEDTAVYYCARTVPVYSTAPYFDLWGQGTLVTVSS VL: DIQMTQSPSSVSASVGDRVTITCQSSPSVWSNFLSWYQQKPGKAPKLLIYEASKLTSGVPSRFSGSGSGTDFTLTISSLQPEDFATYYCGGGYSSISDTTFGGGTKVEIK | 8.25 | 0.000444 | 53800
CA645 gL35gH5 Fab (Fab, V domains shown, Fab: human gamma1 CH1, human kappa (Km3); Kabat numbering) VH: EVQLLESGGGLVQPGGSLRLSCAVSGIDLSNYAINWVRQAPGKGLEWIGIIWASGTTFYATWAKGRFTISRDNSKNTVYLQMNSLRAEDTAVYYCARTVPGYSTAPYFDLWGQGTLVTVSS VL: DIQMTQSPSSVSASVGDRVTITCQSSPSVWSNFLSWYQQKPGKAPKLLIYEASKLTSGVPSRFSGSGSGTDFTLTISSLQPEDFATYYCGGGYVSISDTTFGGGTKVEIK | 5.57 | 0.00029 | 52100
CA645 gL4gH44 Fab (Fab, V domains shown, Fab: human gamma1 CH1, human kappa (Km3); Kabat numbering) VH: EVQLLESGGGLVQPGGSLRLSCAVSGIDLSNYAINWVRQAPGKGLEWIGIIWASGTTFYATWAKGRFTISRDNSKNTVYLQMNSLRAEDTAVYYCARTVPLYSTAPYFDLWGQGTLVTVSS VL: DIQMTQSPSSVSASVGDRVTITCQSSPSVWSNFLSWYQQKPGKAPKLLIYEASKLTSGVPSRFSGSGSGTDFTLTISSLQPEDFATYYCGGGYSSISDTTFGGGTKVEIK | 4.22 | 0.000226 | 53500

Reference: patent US20190144529A1 (UCB, published 2019)
